Source: article PMC2847222

Molecular target: RepD replication initiation protein of Staphylococcus aureus plasmid pC221 (wild type) (Staphylococcus aureus (plasmid pC221)) (UniProt P03065)
Test: AUC

Chain of UniProt P03065 (P03065 whole entry): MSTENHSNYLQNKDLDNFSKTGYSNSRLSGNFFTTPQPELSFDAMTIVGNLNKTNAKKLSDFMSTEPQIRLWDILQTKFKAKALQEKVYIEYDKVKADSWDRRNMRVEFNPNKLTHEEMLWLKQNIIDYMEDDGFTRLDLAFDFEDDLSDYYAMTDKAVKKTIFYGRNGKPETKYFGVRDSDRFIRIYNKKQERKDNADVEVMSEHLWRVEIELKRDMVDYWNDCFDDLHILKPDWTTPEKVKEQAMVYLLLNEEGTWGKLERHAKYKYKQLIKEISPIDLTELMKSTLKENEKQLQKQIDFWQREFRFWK

B1: Bacillus stearothermophilus PcrA helicase (enzyme)
chain: MNFLSEQLLAHLNKEQQEAVRTTEGPLLIMAGAGSGKTRVLTHRIAYLMAEKHVAPWNILAITFTNKAAREMRERVQSLLGGAAEDVWISTFHSMCVRILRRDIDRIGINRNFSILDPTDQLSVMKTILKEKNIDPKKFEPRTILGTISAAKNELLPPEQFAKRASTYYEKVVSDVYQEYQQRLLRNHSLDFDDLIMTTIQLFDRVPDVLHYYQYKFQYIHIDEYQDTNRAQYTLVKKLAERFQNICAVGDADQSIYRWRGADIQNILSFERDYPNAKVILLEQNYRSTKRILQAANEVIEHNVNRKPKRIWTENPEGKPILYYEAMNEADEAQFVAGRIREAVERGERRYRDFAVLYRTNAQSRVMEEMLLKANIPYQIVGGLKFYDRKEIKDILAYLRVIANPDDDLSLLRIINVPKRGIGASTIDKLVRYAADHELSLFEALGELEMIGLGAKAAGALAAFRSQLEQWTQLQEYVSVTELVEEVLDKSGYREMLKAERTIEAQSRLENLDEFLSVTKHFENVSDDKSLIAFLTDLALISDLDELDGTEQAAEGDAVMLMTLHAAKGLEFPVVFLIGMEEGIFPHNRSLEDDDEMEEERRLAYVGITRAEEELVLTSAQMRTLFGNIQMDPPSRFLNEIPAHLLETASRRQAGASRPAVSRPQASGAVGSWKVGDRANHRKWGIGTVVSVRGGGDDQELDIAFPSPIGIKRLLAKFAPIEKV
**Q.** B1 was tested. Which Kd did it give?
**A.** 98.5 nM
